Experimental data published in paper PMC11058611, “Characterization of a novel GH30 non-specific endoxylanase AcXyn30B from Acetivibrio clariflavus” (Applied Microbiology and Biotechnology, 2024).

Legend:
purified protein [1] = substrate: O=[N+]([O-])c1ccc(O[C@@H]2OC[C@@H](O[C@@H]3OC[C@@H](O[C@@H]4OC[C@@H](O)[C@H](O)[C@H]4O)[C@H](O)[C@H]3O)[C@H](O)[C@H]2O)cc1; assay: purified protein; assay type: biochemical, Acetivibrio clariflavus; conditions: 50 mM sodium phosphate buffer, pH 6, 40 °C, 0.05–1 mM substrate
purified protein [2] = substrate: O=[N+]([O-])c1ccc(O[C@@H]2OC[C@@H](O[C@@H]3OC[C@@H](O)[C@H](O)[C@H]3O)[C@H](O)[C@H]2O)cc1; assay: purified protein; assay type: biochemical, Acetivibrio clariflavus; conditions: 50 mM sodium phosphate buffer, pH 6, 40 °C, 0.05–1 mM substrate

B1: AcXyn30B (Acetivibrio clariflavus DSM 19732) (protein)
chain: SYTASVDVNTTYQTLEGFGAAIAWYNDYLTTHPNKNDLYRILFYDSGLDILRLRNQYRNSNNFGYDDMEIVKYGKIMNPNLKVLLSSWSPPSDLKRNGVMNGGTLAKENGSFVYEKFADYWYNSLVAYRAKGIIPDYISIQNEPEYESGDWETCIFRETETSEYPSYAKALDAVYEKIKDLPDMPKILGVESAGIMNNTVQNYARYMDLSKVYGIAHHLYNGGDPYNPDSFNDIFRSLARDFADKPLFMTEYDYGTPFTTAELIHNSLVVEGVSGYFYWDLIWENSQRPLVAIEVPRNPEQWTTKEGYIISDFYYIMQQFAKFTDPGYKRVDASVSSNDIKVSAFVSPDKSKLTMIFINKGYSEHSVALDLKGYSSNKSIIYRTLPEGNERFKKVGSLFGNTVTLPARSVVTVALGVDDEEQIPPQLPTPTPKPESRSAYDIIQAEDYNEMYGIQCETIADDGNKNVAYIENGDYILFKGVDFGTGATGFEASVASAESGGAIEIRLDELYGTTVVKIPVSGTGDWHNYVTVKADIPEIKGKHDLYLVFTGGGGYLFNIDWFVFTGGTVENPVPEVIYGDVNGDGDFNSIDYGYLKMYLLGQIKEFPSKDGMIAADVNGDGTVNSIDYAYMKMRLLGQISKFPVE
notes: purchased from NZYTech (CZ0917); full-length 673 aa: signal peptide 28 aa, GH30 29-446, CBM6 469-593, dockerin 602-673
Km (purified protein [1]): 0.23 mM
kcat (purified protein [1]): 10.4 s⁻¹
kcat/Km (purified protein [1]): 56100 M⁻¹ s⁻¹
Km (purified protein [2]): 0.21 mM
kcat (purified protein [2]): 7.4 s⁻¹
kcat/Km (purified protein [2]): 34900 M⁻¹ s⁻¹
